Tests used:
[1] = molecular target: TGF-β1 of the porcine enamel matrix (porcine (endogenous in porcine enamel)); assay: co-elution on RP-HPLC, TGF-β1 quantified by ALP-inducing activity of HPDL cells; amelogenins as purified from enamel (before the in vitro binding); ng of TGF-β1 per mg of amelogenin calculated from standard CF-hTGF-β1 (0.3 ng mL^-1), after dilution correction; complexes formed in vivo
[2] = molecular target: carrier-free recombinant human TGF-β1 (human); assay: in vitro binding, RP-HPLC, TGF-β1 quantified by ALP-inducing activity of HPDL cells; purified amelogenin mixed with CF-hTGF-β1 or rh-latent TGF-β1, fractions from RP-HPLC tested in the ALP-HPDL system; ng per mg of amelogenin calculated from standard CF-hTGF-β1 (0.3 ng mL^-1), after dilution correction; details in the Supplementary Methods
Chain of carrier-free recombinant human TGF-β1 (human) (P01137 279-390): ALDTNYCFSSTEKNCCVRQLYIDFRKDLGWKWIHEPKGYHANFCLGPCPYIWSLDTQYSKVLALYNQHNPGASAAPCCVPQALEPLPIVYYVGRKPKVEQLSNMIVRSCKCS

Chain of TGF-β1 of the porcine enamel matrix (porcine (endogenous in porcine enamel)) (P07200 279-390): as the sequence (P01137 279-390) above

original TGF-β1, ng against 1 mg of amelogenin [1]: 0.345 ng | bound TGF-β1, ng against 1 mg of amelogenin [2]: 1.18 ng
B1: P173 amelogenin (natural protein)
chain: MPLPPHPGHPGYINFSYEVLTPLKWYQNMIRHPYTSYGYEPMGGWLHHQIIPVVSQQTPQSHALQPHHHIPMVPAQQPGIPQQPMMPLPGQHSMTPTQHHQPNLPLPAQQPFQPQPVQPQPHQPLQPQSPMHPIQPLLPQPPLPPMFSMQSLLPDLPLEAWPATDKTKREEVD

— article PMC5025654
